Experiments:
Assay in all cases: DELFIA Xpress PlGF sandwich immunoassay; tested substance at 5000 pg/mL
[1] = target: PlGF-1 (glycosylated), purified recombinant placental growth factor isoform 1 (human) (UniProt P49763)
[2] = target: PlGF-2 (glycosylated), purified recombinant placental growth factor isoform 2 (human)
[3] = target: PlGF-3 (non-glycosylated), purified recombinant placental growth factor isoform 3 (human) (UniProt P49763)

Sequence of PlGF-2 (glycosylated), purified recombinant placental growth factor isoform 2 (human) (chain, as listed by the source limits assumed): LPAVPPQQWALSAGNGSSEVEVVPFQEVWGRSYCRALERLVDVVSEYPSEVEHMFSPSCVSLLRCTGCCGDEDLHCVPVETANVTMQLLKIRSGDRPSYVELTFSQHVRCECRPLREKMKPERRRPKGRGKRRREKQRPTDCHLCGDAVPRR

In the case of “P1GF-1 antibody provided with the DELFIA Xpress kit (commercial DELFIA Xpress P1GF method, PerkinElmer)”, the Observed cross-reactivity (%) [1] is reported as 33%, the Observed cross-reactivity (%) [2] is reported as 16% and the Observed cross-reactivity (%) [3] is reported as 5%.
